The values that follow come from paper PMC9344466, “The Dual Roles of MAGE-C2 in p53 Ubiquitination and Cell Proliferation Through E3 Ligases MDM2 and TRIM28” (Frontiers in Cell and Developmental Biology, 2022).

The assay addresses T1, SUMO-MDM2 (full length, residues 1-491) (human, UniProt Q00987 1-491).
T1 construct: MDM2, human, full length, residues 1-491; cloned into a SUMO vector (modified pET-28a); eluted without tag cleavage; also called sumo-tagged MDM2; SUMO-MDM2 fusion protein; source: E. coli BL21 (DE3), purified (HisTrap, Superdex 200)
Put plainly: pull-down; GST-tagged MAGE-C2 proteins on glutathione Sepharose beads, SUMO-MDM2 added; both expressed in bacterium; 20 mM Tris pH 8, 150 mM NaCl, 0.2 mM TCEP, 0.02% Triton-100, 5% milk powder, 4°C; anti-MDM2 Western blot (Figure 2A). The note with it: both partners purified.

T1 sequence (Q00987 whole entry, the tested form may be a part): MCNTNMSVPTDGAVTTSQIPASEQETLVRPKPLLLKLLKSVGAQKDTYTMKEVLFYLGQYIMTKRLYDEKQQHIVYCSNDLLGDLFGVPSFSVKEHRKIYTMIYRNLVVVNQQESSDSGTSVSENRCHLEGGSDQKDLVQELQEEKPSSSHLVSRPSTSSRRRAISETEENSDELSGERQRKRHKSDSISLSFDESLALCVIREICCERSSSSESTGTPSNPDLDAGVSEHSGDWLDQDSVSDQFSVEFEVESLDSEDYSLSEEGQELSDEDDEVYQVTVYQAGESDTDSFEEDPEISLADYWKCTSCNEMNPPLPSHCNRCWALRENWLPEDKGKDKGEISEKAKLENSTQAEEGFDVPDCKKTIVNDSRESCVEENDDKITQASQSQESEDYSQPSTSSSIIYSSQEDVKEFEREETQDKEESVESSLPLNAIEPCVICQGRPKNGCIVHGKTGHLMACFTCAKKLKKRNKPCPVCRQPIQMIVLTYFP

B1: GST-tagged MAGE-C2 full length (residues 1-373) (natural protein, human, UniProt Q9UBF1 1-373, looked up)
chain: MPPVPGVPFRNVDNDSPTSVELEDWVDAQHPTDEEEEEASSASSTLYLVFSPSSFSTSSSLILGGPEEEEVPSGVIPNLTESIPSSPPQGPPQGPSQSPLSSCCSSFSWSSFSEESSSQKGEDTGTCQGLPDSESSFTYTLDEKVAELVEFLLLKYEAEEPVTEAEMLMIVIKYKDYFPVILKRAREFMELLFGLALIEVGPDHFCVFANTVGLTDEGSDDEGMPENSLLIIILSVIFIKGNCASEEVIWEVLNAVGVYAGREHFVYGEPRELLTKVWVQGHYLEYREVPHSSPPYYEFLWGPRAHSESIKKKVLEFLAKLNNTVPSSFPSWYKDALKDVEERVQATIDTADDATVMASESLSVMSSNVSFSE
notes: MAGE-C2, human, full length, residues 1-373; synthetic gene in pGEX-6p-1 with a 3C protease site after GST; In the ubiquitination assays the GST tag had been cut off with 3C protease; in the pull-down GST was kept; also called MAGE-C2 FL; GST-MAGE-C2; source: E. coli BL21 (DE3), purified (glutathione Sepharose); not shown: GST, N-terminal, kept
Regarding B1, the binding result is “binds”.

B2: GST-tagged MAGE-C2 MHD domain (residues 140-350) (domain or fragment, human, UniProt Q9UBF1 140-350, looked up)
chain: TLDEKVAELVEFLLLKYEAEEPVTEAEMLMIVIKYKDYFPVILKRAREFMELLFGLALIEVGPDHFCVFANTVGLTDEGSDDEGMPENSLLIIILSVIFIKGNCASEEVIWEVLNAVGVYAGREHFVYGEPRELLTKVWVQGHYLEYREVPHSSPPYYEFLWGPRAHSESIKKKVLEFLAKLNNTVPSSFPSWYKDALKDVEERVQATIDT
notes: MAGE-C2, human, MAGE homology domain (MHD), residues 140-350; synthetic gene in pGEX-6p-1; In the ubiquitination assays other forms were used (GST cut off in vitro; Myc-tagged in HEK293T cells); also called MHD^WT; GST-MAGE-C2; source: E. coli BL21 (DE3), purified (glutathione Sepharose); not shown: GST, N-terminal, kept
For the molecule B2, the binding result is recorded as “binds”.
